doi:10.1101/2025.09.29.679184

Columns and labels:
[1] = target: N-terminally Avi-tagged Lotus SYMRK kinase 4D (Lotus japonicus); assay: BLI
[2] = target: N-terminally Avi-tagged Lotus SYMRK kinase 4A (Lotus japonicus); assay: BLI

Substance: Lotus japonicus Early Phosphorylated Protein 1a (EPP1a) WT, purified (natural protein)
- KD1 (2:1 heterogenous ligand fit) [1]: 452 nM
- KD2 (2:1 heterogenous ligand fit) [1]: 1 µM
- KD1 (2:1 heterogenous ligand fit) [2]: 2.2 µM
- KD2 (2:1 heterogenous ligand fit) [2]: 6.4 µM
